According to patent US20180186885A1 (University of California, published 2018):

Legend:
[1] = target: T1, mouse Fzd7 P188L (mouse, UniProt Q61090 33-572); assay: reactivity of Fab with mouse Fzd7 point mutants (FIG. 4C-D)
T1 construct: also called MEF-Fzd7P188L

[2] = target: FZD7 protein on human cancer cells (OVCAR-4, MDA-MB-231, primary tumour tissue) (human, UniProt O75084 33-574); assay: cell-based or functional assay

Row | Binder | binding result [1] | fold decrease in TOP-Flash Wnt reporter (luciferase) activity in MDA-MB-231 cells treated with Wnt3a (0-5 nM), FZD7-Fab-1791 at 200 nM [2]
1 | FZD7-Fab-1791 (Fab) light: DIVMTQSPKSMSMSVGERVTLRCKASENVLNYVSWYQQKPEQSPKLLIYGASNRYTGVPDRFTGSGSATDFTLTISSVQAEDLADYHCGQSYRYPTFGAGTKLELKRADAAPTVSIFPPSSEQLTSGGASVVCFLNNFYPKDINVKWKIDGSERQNGVLNSWTDQDSKDSTYSMSSTLTLTKDEYERHNSYTCEATHKTSTSPIVKSFNRNESYPYDVPDYAS heavy: EVQPVESGGGLVQPKGSLKLSCAASGFTFNTYAMHWVRQAPGKGLEWVARIRSKSNNYAKNYDDSVKDRFTISRDDSQSMLYLQMNNLKTEDTAMYYCVRENYGGRFDYWGQGTTLTVSSAKTTPPSVYPLAPGSAAQTNSMVTLGCLVKGYFPEPVTVTWNSGSLSSGVHTFPAVLQSDLYTLSSSVTVPSSTWPSETVTCNVAHPASSTKVDKKIVPRDSHHHHHHH | binds | ~3 fold
2 | FZD7-Fab-1291 (Fab, The entries as printed end in tag-like residues) light: DVVMSQSPSSLAVSVGEKVTMSCKSSQSLLYSSNQKNYLAWYQQKPGQSPKLLIYWASTRESGVPDRFTGSGSGTDFTLTISSVKAKDLAVYYCQQYYSYPTFGGGTKLEIKRADAAPTVSIFPPSSEQLTSGGASVVCFLNNFYPKDINVKWKIDGSERQNGVLNSWTDQDSKDSTYSMSSTLTLTKDEYERHNSYTCEATHKTSTSPIVKSFNRNESYPYDVPDYAS heavy: EVQLVESGGGLVKPGGSLKLSCAASGFTFSSYAMSWVRQTPEKRLEWVATISDGGSYTRYPDKLKGRFTISRDNAKNNLYLQMSHLKSEDTAMYYCARVGGRRDYFDYWGQGTTLTVSSAKTTPPSVYPLAPGSAAQTNSMVTLGCLVKGYFPEPVTVTWNSGSLSSGVHTFPAVLQSDLYTLSSSVTVPSSTWPSETVTCNVAHPASSTKVDKKIVPRDCHHHHHHH | binds | 
